# Columns and labels:
# [1] = target: HLA-A*24:03; test: IEDB peptide-MHC binding, purified MHC/direct/fluorescence; filed as Kd, often an IC50 or EC50 that approximates it; ≥ and ≤ were set here for values at or beyond the usual limits of such assays; details: source organism: Entamoeba histolytica HM-1:IMSS
# [2] = target: HLA-A*24:02; test: IEDB peptide-MHC binding, purified MHC/competitive/fluorescence; filed as Kd, often an IC50 or EC50 that approximates it; ≥ and ≤ were set here for values at or beyond the usual limits of such assays; details: source organism: Entamoeba histolytica
# [3] = target: HLA-A*32:07; test: as above; details: source organism: Entamoeba histolytica
# [4] = target: HLA-A*32:15; test: as above; details: source organism: Entamoeba histolytica
# [5] = target: HLA-B*15:42; test: as above
# [6] = target: HLA-B*45:06; test: as above
# [7] = target: HLA-B*83:01; test: as above
# [8] = target: HLA-C*04:01; test: as above; details: source organism: Entamoeba histolytica
# [9] = target: HLA-C*06:02; test: as above; details: source organism: Entamoeba histolytica
# [10] = target: HLA-C*14:02; test: as above; details: source organism: Entamoeba histolytica
# [11] = target: HLA-A*01:01; test: IEDB peptide-MHC binding, purified MHC/direct/fluorescence; filed as Kd, often an IC50 or EC50 that approximates it; ≥ and ≤ were set here for values at or beyond the usual limits of such assays; details: source organism: Mycobacterium tuberculosis
# [12] = target: HLA-A*11:01; test: as above; details: source organism: Mycobacterium tuberculosis
# [13] = target: HLA-A*26:02; test: as above; details: source organism: Mycobacterium tuberculosis str. Haarlem
# [14] = target: HLA-A*31:01; test: as above; details: source organism: Mycobacterium tuberculosis
# [15] = target: HLA-A*68:02; test: as above; details: source organism: Mycobacterium tuberculosis
# [16] = target: HLA-A*69:01; test: as above; details: source organism: Mycobacterium tuberculosis
# [17] = target: HLA-B*07:02; test: as above; details: source organism: Mycobacterium tuberculosis
# [18] = target: HLA-B*08:01; test: as above; details: source organism: Mycobacterium tuberculosis str. Haarlem
# [19] = target: HLA-B*08:02; test: as above; details: source organism: Mycobacterium tuberculosis str. Haarlem
# [20] = target: HLA-B*08:03; test: as above; details: source organism: Mycobacterium tuberculosis str. Haarlem
# [21] = target: HLA-B*15:17; test: as above; details: source organism: Mycobacterium tuberculosis
# [22] = target: HLA-B*18:01; test: as above; details: source organism: Mycobacterium tuberculosis
# [23] = target: HLA-B*40:01; test: as above; details: source organism: Mycobacterium tuberculosis
# [24] = target: HLA-B*46:01; test: as above; details: source organism: Mycobacterium tuberculosis
# [25] = target: HLA-B*48:01; test: as above; details: source organism: Mycobacterium tuberculosis
# [26] = target: HLA-B*57:01; test: as above; details: source organism: Mycobacterium tuberculosis
# [27] = target: HLA-B*58:01; test: as above; details: source organism: Mycobacterium tuberculosis
# [28] = target: HLA-A*02:06; test: IEDB peptide-MHC binding, purified MHC/competitive/fluorescence; filed as Kd, often an IC50 or EC50 that approximates it; ≥ and ≤ were set here for values at or beyond the usual limits of such assays; details: source organism: Mycobacterium tuberculosis C
# [29] = target: HLA-A*26:03; test: as above; details: source organism: Mycobacterium tuberculosis C
# [30] = target: HLA-B*15:01; test: as above; details: source organism: Mycobacterium tuberculosis C
# [31] = target: HLA-B*27:05; test: as above; details: source organism: Mycobacterium tuberculosis C
# [32] = target: HLA-A*02:01; test: IEDB peptide-MHC binding, purified MHC/direct/fluorescence; filed as Kd, often an IC50 or EC50 that approximates it; ≥ and ≤ were set here for values at or beyond the usual limits of such assays; details: source organism: Mycobacterium tuberculosis
# [33] = target: HLA-B*15:01; test: as above; details: source organism: Mycobacterium tuberculosis
# [34] = target: HLA-B*27:05; test: as above; details: source organism: Mycobacterium tuberculosis
# [35] = target: HLA-A*01:01; test: IEDB peptide-MHC binding, purified MHC/competitive/fluorescence; ≥ and ≤ were set here for values at or beyond the usual limits of such assays; details: source organism: Homo sapiens
# [36] = target: HLA-A*02:01; test: as above; details: source organism: Homo sapiens
# [37] = target: HLA-A*03:01; test: as above; details: source organism: Homo sapiens
# [38] = target: HLA-A*11:01; test: as above; details: source organism: Homo sapiens
# [39] = target: HLA-A*24:02; test: as above; details: source organism: Homo sapiens
# [40] = target: HLA-A*25:01; test: as above; details: source organism: Homo sapiens
# [41] = target: HLA-A*29:02; test: as above; details: source organism: Homo sapiens
# [42] = target: HLA-A*31:01; test: as above; details: source organism: Homo sapiens
# [43] = target: HLA-A*68:02; test: as above; details: source organism: Homo sapiens
# [44] = target: HLA-B*07:02; test: as above; details: source organism: Homo sapiens
# [45] = target: HLA-B*08:01; test: as above; details: source organism: Homo sapiens
# [46] = target: HLA-B*14:02; test: as above; details: source organism: Homo sapiens
# [47] = target: HLA-B*18:01; test: as above; details: source organism: Homo sapiens
# [48] = target: HLA-B*35:01; test: as above; details: source organism: Homo sapiens
# [49] = target: HLA-B*37:01; test: as above; details: source organism: Homo sapiens
# [50] = target: HLA-B*40:02; test: as above; details: source organism: Homo sapiens
# [51] = target: HLA-B*44:03; test: as above; details: source organism: Homo sapiens
# [52] = target: HLA-B*51:01; test: as above; details: source organism: Homo sapiens
# [53] = target: HLA-B*53:01; test: as above; details: source organism: Homo sapiens
# [54] = target: HLA-B*58:01; test: as above; details: source organism: Homo sapiens
# [55] = source organism: Entamoeba histolytica
# [56] = source organism: Mycobacterium tuberculosis C
sequence,measurement,setting,value
SYMSTFPLF,Kd,[1],≤ 1 nM
same,Kd,[2],≤ 0.1 nM
same,Kd,[3],0.5 nM
same,Kd,[4],784 nM
same,Kd,[5]; [55],≥ 5 µM
same,Kd,[6]; [55],≥ 5 µM
same,Kd,[7]; [55],≥ 5 µM
same,Kd,[8],88.3 nM
same,Kd,[9],613 nM
same,Kd,[10],≤ 0.1 nM
ALFDRPAFK,Kd,[11],≥ 20 µM
same,Kd,[12],24 nM
same,Kd,[13],≥ 20 µM
same,Kd,[14],4.7 nM
same,Kd,[15],≥ 20 µM
same,Kd,[16],≥ 20 µM
same,Kd,[17],≥ 20 µM
same,Kd,[18],≥ 20 µM
same,Kd,[19],≥ 20 µM
same,Kd,[20],≥ 20 µM
same,Kd,[21],≥ 20 µM
same,Kd,[22],≥ 20 µM
same,Kd,[23],≥ 20 µM
same,Kd,[24],≥ 20 µM
same,Kd,[25],≥ 20 µM
same,Kd,[26],≥ 20 µM
same,Kd,[27],≥ 20 µM
same,Kd,[28],325 nM
same,Kd,[29],≥ 20 µM
same,Kd,[30],≥ 20 µM
same,Kd,[5]; [56],≥ 5 µM
same,Kd,[31],≥ 20 µM
same,Kd,[6]; [56],≥ 5 µM
same,Kd,[7]; [56],≥ 5 µM
QINELHHSK,Kd,[11],≥ 20 µM
same,Kd,[32],≥ 20 µM
same,Kd,[12],68.5 nM
same,Kd,[14],335 nM
same,Kd,[15],≥ 20 µM
same,Kd,[17],≥ 20 µM
same,Kd,[33],≥ 20 µM
same,Kd,[21],≥ 20 µM
same,Kd,[22],≥ 20 µM
same,Kd,[34],≥ 20 µM
same,Kd,[23],≥ 20 µM
same,Kd,[24],≥ 20 µM
same,Kd,[25],≥ 20 µM
same,Kd,[26],≥ 20 µM
same,Kd,[27],≥ 20 µM
same,Kd,[29],≥ 20 µM
YPDPVIKV,IC50,[35],≥ 20 µM
same,IC50,[36],4.97 µM
same,IC50,[37],≥ 20 µM
same,IC50,[38],≥ 20 µM
same,IC50,[39],≥ 20 µM
same,IC50,[40],≥ 20 µM
same,IC50,[41],≥ 20 µM
same,IC50,[42],≥ 20 µM
same,IC50,[43],317 nM
same,IC50,[44],1460 nM
same,IC50,[45],≥ 20 µM
same,IC50,[46],≥ 20 µM
same,IC50,[47],296 nM
same,IC50,[48],736 nM
same,IC50,[49],≥ 20 µM
same,IC50,[50],540 nM
same,IC50,[51],≥ 20 µM
same,IC50,[52],≥ 20 µM
same,IC50,[53],≥ 20 µM
same,IC50,[54],≥ 20 µM
